These results are taken from patent US20210087298A1.

Test [1] addresses HER2 (UniProt P04626). As to the kind of experiment: apparent Kd, flow cytometry on SKBr3 cells.
In test [2] the target is HER2 (UniProt P04626). The experiment in a line: apparent Kd, flow cytometry on SKOV3 cells. A general note: A flow cytometer gives signals particle by particle.
Test [3] addresses HER2 (UniProt P04626). As to the kind of experiment: apparent Kd, flow cytometry on JIMT-1 cells.
Test [4] has as its target HER2 (UniProt P04626). The experiment in a line: apparent Kd, flow cytometry on SKOV3 cells (n = 2).

As to “trast A158N-MB488: trastuzumab A158N mutant conjugated through Neu5NAz on Fd glycans (antibody)”, the Kd with HER2 [1] is 2.6 nM; with HER2 [2] it was 3.3 nM; with HER2 [3] it was 3.9 nM; with HER2 [4], 3.5 nM.

On to trast K129N-MB488 (antibody), for which the Kd with HER2 [1] was 2.3 nM; in the test with HER2 [2] it was 3.1 nM; in the test with HER2 [3] it was 3.2 nM.

For the substance “trast L189N-MB488: trastuzumab L189N mutant conjugated through Neu5NAz on Fd glycans (antibody)”, the Kd is 3.4 nM with HER2 [2] and 3.5 nM in the test with HER2 [4].

Consider trast T191N-MB488 (antibody), for which the Kd with HER2 [1] amounted to 1.8 nM.
